According to patent US20030185792A1, “Morphogen analogs of bone morphogenic proteins” (Curis, Inc., priority 1996, published 2003):
Like-named read-outs stand apart in the source and are kept apart here. Blank lines part the entries; values can stand above or below the molecule they belong to. Bridge positions count the residues as written; N and C are the ends. Ends that are not written are not given here.

Columns and labels:
[1] = system: ROS cells; experiment: ROS cell based alkaline phosphatase bioassay; set-up: species or system rat
Method: In a first series of experiments, increasing concentrations of peptides F2-2 (FIG. 9A), F2-3 (FIG. 9B), Hn-2 (FIG. 9C) and Hc-2 (FIG. 9D) were added to ROS cells either alone (open bars) or in combination with 40 ng/ml soluble OP-1 (filled bars) and their effect on alkaline phosphatase activity measured. Soluble OP-1 is the form of OP-1 in which the pro-domain is still attached to the mature portion of OP-1 (see WO 94/03600). A basal alkaline phosphatase activity is shown by the line and represents the alkaline phosphatase activity of cells incubated in the absence of both soluble OP-1 and peptide.
(§1) Assay of peptides: The receptor-binding activities of OP-1 synthetic peptides were determined by a radio-ligand receptor assay using ^125I-labeled OP-1 as ligand, and an OP-1 receptor-enriched plasma membrane fraction of ROS cells. The assay is based on competition between radiolabeled OP-1 and unlabeled OP-1 or peptide for binding to membrane-bound receptor. A well characterized ROS cell based in vitro bio-assay was used to examine the effects of OP-1 peptides on basal as well as OP-1 induced cellular alkaline phosphatase activity.
i. ROS Cell Based Alkaline Phosphatase Assay: OP-1 synthetic peptides that bind OP-1 receptors are further analyzed by in vitro bioassay. This allows defining the role of OP-1 peptides at the receptor-binding site. Some of the OP-1 peptides that effectively interact with receptors could inhibit OP-1 induced target cell responsiveness, thereby acting as functional antagonists. Alternatively, they may mimic OP-1 functions inducing alkaline phosphatase activity in ROS cells. Creative BioMolecules has developed and fully validated ROS cell in vitro assay for OP-1. An assay procedure as described earlier is essentially followed to determine the biological activities of OP-1 peptides. In a typical experiment, rat Osteosarcoma (17/2.8) cells are plated in 96 well plates (3.0×10^4 cells/well) and incubated overnight at 37° C. in 5-6% CO2 incubator. Next day, the plates are examined to make sure that cells are healthy & confluent. Cells are treated with increasing concentrations of OP-1 standard (1-10,000 ng/ml) or OP-1 synthetic peptides (0.02-200 μM) alone or with OP-1 standard prepared in medium containing 1% FBS and incubated for 2 days at 37° C. in 5-6% CO2 incubator. The cellular content of alkaline phosphatase activity is determined by the method of Reddi and Huggins. Enzyme estimations are routinely carried out in 96 well plates. Following removal of culture medium, cells are washed with pre-warmed PBS (150 μl) and further incubated in 100 ul of pre-warmed 1% Triton X-100 for 30 minutes at 37 C. Plates are centrifuged for 10 minutes at full speed, and recovered samples (each 15 μl) are assayed for enzyme activity by adding 90 ul p-nitrophenyl phosphate (Sigma) as a substrate in 0.05 M glycine-NaOH buffer, pH 9.3 and incubating for 20 minutes at 37° C. The reaction is stopped by adding 75 μl of 0.2 N NaOH/well and absorbance at 405/490 nm is measured on a Dynatech MR 700 plate reader. Results are expressed as concentration of peptide inhibitor (with antagonist activity) required to give 50% inhibition of maximum response to OP-1 standard. On the other hand, the activities of peptides that stimulate cell responsiveness (with agonist activity) are expressed relative to OP-1 standard. FIG. 23 illustrates the dose-related effects of OP-1 preparations on stimulation of alkaline phosphatase activity as determined in ROS cell based in vitro assay.

[2] = system: OP-1 receptor-enriched plasma membrane fraction of ROS cells; experiment: Radioligand receptor assay: displacement of 125I-labeled OP-1 from ROS cell plasma membranes; format: binding, rat
Method: In a second series of experiments, the ability of unlabeled soluble OP-1 and unlabeled peptides F1-2, F2-2, F2-3, H-n2 and H-c2 to displace ^125I labeled soluble OP-1 from ROS cell membranes was measured. The activities of peptides F2-2 and F2-3 relative to soluble OP-1 are shown in FIG. 10A, and the activities of peptides Fi-2, H-n2 and H-c2 relative to soluble OP-1 are shown in FIG. 10B. OP-1 receptor-enriched plasma membranes of ROS cells were incubated for 20 hrs at 4° C. with ^125I-labeled soluble OP-1 and unlabeled peptide. Receptor bound material was separated from unbound material by centrifugation at 39,500×g. The resulting pellet was harvested and washed with 50 mM HEPES buffer, pH 7.4 containing 5 mM MgCl2 and 1 mM CaCl2 Radioactivity remaining in the pellet was determined by means of a gamma counter.
as §1
i. Radio-receptor Assay: The receptor-binding activities of various OP-1 synthetic peptides can be determined by an equilibrium displacement binding isotherm assay using ^125I-labeled OP-1 as ligand and OP-1 receptor-enriched plasma membrane fraction of ROS cells. Highly purified OP-1 can be radioiodinated to a specific activity of 70-78 μCi/ug by a modified procedure of lactoperoxidase method. The percent bindability of radioiodinated OP-1 to excess receptor is 30-37%. Plasma membranes enriched with OP-1 receptors from ROS cells can be isolated as is known in the art. […] In a typical assay, fixed amounts of ^125I-labeled sol. OP-1 (˜80,000 cpm) are incubated with fixed amount of receptor-enriched plasma membrane fraction in the presence (5 μg, for non-specific binding) or absence of excess unlabeled OP-1 (for total binding). Displacement curves are generated with increasing concentrations of OP-1 peptide (0.032-50 μM) or OP-1 standard preparation (5-2000 ng). The assay incubations are carried out in a reaction volume of 300 μl with shaking for 22 hrs. at 4° C. Separation of bound and free ^125I-labeled OP-1 is by centrifugation (39,500×g, 30 minutes). The supernatants are aspirated and pellets are washed before counting in a gamma counter (Packard Instr., Downers Grove, Ill.). The concentration of OP-1 peptide required to give 50% inhibition of total specific binding of ^125I-labeled OP-1 (ED50) is calculated from competitive data.

[3] = molecular target: OP-1 receptor of ROS cells (OP-1 receptor-enriched plasma membrane fraction of ROS cells) (rat)
[4] = molecular target: OP-1 receptor of ROS cells (OP-1 receptor-enriched plasma membrane fraction of ROS cells) (rat); experiment: radioligand receptor assay, ROS cell plasma membranes
[5] = molecular target: OP-1 receptor of ROS cells (OP-1 receptor-enriched plasma membrane fraction of ROS cells) (rat); remark: listed apart in the source
[6] = molecular target: OP-1 receptor of ROS cells (OP-1 receptor-enriched plasma membrane fraction of ROS cells) (rat); remark: listed apart in the source
[7] = molecular target: OP-1 receptor of ROS cells (OP-1 receptor-enriched plasma membrane fraction of ROS cells) (rat); experiment: binding of ^125I-OP-1 to excess receptor (ROS cell plasma membranes)
[8] = molecular target: OP-1 receptor of ROS cells (OP-1 receptor-enriched plasma membrane fraction of ROS cells) (rat); experiment: equilibrium binding of ^125I-OP-1 to OP-1 receptor-enriched ROS cell plasma membranes
[9] = molecular target: OP-1 receptor of ROS cells (OP-1 receptor-enriched plasma membrane fraction of ROS cells) (rat); remark: listed apart in the source
[10] = molecular target: OP-1 receptor of ROS cells (OP-1 receptor-enriched plasma membrane fraction of ROS cells) (rat); remark: listed apart in the source
[11] = molecular target: OP-1 receptor of ROS cells (OP-1 receptor-enriched plasma membrane fraction of ROS cells) (rat); remark: listed apart in the source
[12] = molecular target: OP-1 receptor of ROS cells (OP-1 receptor-enriched plasma membrane fraction of ROS cells) (rat); experiment: displacement of ^125I-soluble OP-1 from ROS cell plasma membranes
[13] = molecular target: OP-1 receptor of ROS cells (OP-1 receptor-enriched plasma membrane fraction of ROS cells) (rat); remark: listed apart in the source

Molecule: H-N2: SEQ ID No. 12; 11 residues (plus Cys) in the loop on the N-terminal end of the Heel helix (CLNSYMNATNHAC; listed as Homo sapiens)
effect on basal cell responsiveness (alkaline phosphatase activity) ([1]; Example 3, peptide alone, no OP-1): not effective | effect on OP-1 induced cell responsiveness (agonist/antagonist behaviour) ([1]; Example 3, peptide together with OP-1): not effective | effect on alkaline phosphatase activity ([1]; either alone or in combination with soluble OP-1, FIG. 9C): little or no effect | ability to displace 125I-labeled soluble OP-1 from ROS cell membranes ([2]; Example 2, FIGS. 10A and 10B): little or no ability to displace | effect on binding of 125I-labeled OP-1 to the receptor ([2]; Example 3): failed to inhibit

B1: Peptide H-C2 (peptide)
peptide: CCFINPETVCC
modifications: disulfide (positions not given here); not fully specified (bridges); also: double disulfide bonds, pairing of the four Cys not given here
IC50 (peptide concentration giving 50% inhibition of cellular responsiveness to OP-1), ROS cell alkaline phosphatase [3]: 5 µM | concentration at which the binding of ^125I-labeled OP-1 to the receptor was potentiated [4]: 8 µM

B2: OP-1 (osteogenic protein-1), mature human OP-1 (ligand)
chain: CKKHELYVSFRDLGWQDWIIAPEGYAAYYCEGECAFPLNSYMNATNHAIVQTLVHFINPETVPKPCCAPTQLNAISVLYFDDSSNVILKKYRNMVVRACGCH
modifications: radio-iodinated (^125I) when used as tracer; unlabeled when used as competitor or in the bioassay
percent bindability to excess receptor [7]: 30 to 37% | Ka [8]: 4.38e+09 M⁻¹ | average OP-1 binding capacity (pmol/mg protein) [8]: 3.6

Molecule: CYFDDSSNVICKKYRS (disulfide 1-11) [Peptide F2-3]
alkaline phosphatase activity of ROS cells, increase relative to soluble OP-1 alone [10]: 20% | OP-1 induced cellular alkaline phosphatase activity of ROS cells, % increase in OP-1 response relative to the absence of peptide [13]: 53% | ED50 [4]: 10 µM | ED50 [12]: 5 µM

Now from value to molecule:

IC50 (peptide concentration inhibiting the OP-1 induced cell response by 50%), ROS cell alkaline phosphatase [5]: 8 µM
Molecule: CLNAISVLYFDDSSNVILKKYRNMVVRC (disulfide 1-28 (inferred)) [Peptide F2-1]

IC50 (peptide concentration giving 50% inhibition of the cell response to OP-1), ROS cell alkaline phosphatase [6]: 10 µM | concentration required to inhibit the binding of ^125I-labeled OP-1 [4]: 179 µM
Molecule: CFRDLGWQDWIIAPC (disulfide 1-15) [Peptide F1-2]

IC50 (peptide concentration giving 50% inhibition of cellular responsiveness to OP-1), ROS cell alkaline phosphatase [9]: 20 µM
Molecule: CELYVSFRDLGWQDWIIAPEGYAAYC (disulfide 1-26) [Peptide F1-1]

alkaline phosphatase activity of ROS cells, increase relative to soluble OP-1 alone [10]: 20% | OP-1 induced cellular alkaline phosphatase activity of ROS cells, potentiation [11]: 20% | ED50 [4]: 1 µM | ED50 [12]: 1 µM
Molecule: CYFDDSSNVIC (disulfide 1-11) [Peptide F2-2]
